Series [1] deals with T1, Abf2p (mature) (Saccharomyces cerevisiae, UniProt Q02486 27-183).
T1 sequence: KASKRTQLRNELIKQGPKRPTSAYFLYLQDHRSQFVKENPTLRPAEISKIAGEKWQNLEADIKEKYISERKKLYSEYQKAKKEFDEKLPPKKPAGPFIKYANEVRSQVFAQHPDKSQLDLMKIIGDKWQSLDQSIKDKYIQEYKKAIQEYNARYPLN
Kind of series: X-ray crystallography.

Series [2] deals with T1, Abf2p (mature). Kind of series: ITC. A general note: Isothermal titration calorimetry measures the heat released or taken up as one component is titrated into another.

B1: Af2_22 5-BrU6 (dsDNA)
DNA 1: AATAATAAATTATATAATATAA
DNA 2: TTATATTATATAATTTATTATT
modifications: T6 replaced by 5-bromouracil
As for B1, in series [1], the binding result is “binds”.

B2: GC_22 (dsDNA)
DNA 1: GAAGATATCCGGGTCCCAATAA
DNA 2: TTATTGGGACCCGGATATCTTC
B2: in series [2], the binding result is “binds”.
